In patent US20060024661A1, “Modulation of CRF potentiation of NMDA receptor currents via CRF receptor 2” (The Regents of the University of California, priority 2003, published 2006):

Experiments:
[1] = target: CRF receptor 1 (CRF-R1) (mouse) (UniProt P35347); test: cell-based or functional assay
[2] = target: CRF receptor 2 (CRF-R2) (mouse) (UniProt Q60748); test: cell-based or functional assay
Chain of CRF receptor 2 (CRF-R2) (mouse) (Q60748 20-411): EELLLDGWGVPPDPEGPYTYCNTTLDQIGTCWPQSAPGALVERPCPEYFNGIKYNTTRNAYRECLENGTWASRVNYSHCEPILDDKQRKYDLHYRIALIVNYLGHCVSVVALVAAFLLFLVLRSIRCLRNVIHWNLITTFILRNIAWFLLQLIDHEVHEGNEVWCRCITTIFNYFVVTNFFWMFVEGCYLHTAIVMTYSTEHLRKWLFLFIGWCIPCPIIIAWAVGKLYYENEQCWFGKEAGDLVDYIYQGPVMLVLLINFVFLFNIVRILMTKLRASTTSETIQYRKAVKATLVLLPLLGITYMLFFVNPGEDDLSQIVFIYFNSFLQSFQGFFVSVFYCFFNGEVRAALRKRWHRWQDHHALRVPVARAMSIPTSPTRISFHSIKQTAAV

Chain of CRF receptor 1 (CRF-R1) (mouse) (P35347 24-415): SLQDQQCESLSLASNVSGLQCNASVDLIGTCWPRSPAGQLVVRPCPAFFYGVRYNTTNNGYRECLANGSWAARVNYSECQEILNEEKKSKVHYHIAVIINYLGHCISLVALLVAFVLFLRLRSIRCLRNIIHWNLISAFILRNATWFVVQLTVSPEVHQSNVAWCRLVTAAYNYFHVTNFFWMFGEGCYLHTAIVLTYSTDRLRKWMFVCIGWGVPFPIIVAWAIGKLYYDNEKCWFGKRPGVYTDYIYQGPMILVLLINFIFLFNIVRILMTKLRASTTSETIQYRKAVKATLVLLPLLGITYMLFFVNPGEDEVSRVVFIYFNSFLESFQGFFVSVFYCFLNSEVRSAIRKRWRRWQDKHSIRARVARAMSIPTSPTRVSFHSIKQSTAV

| Substance | hippocampal CA1 field potentials (% of baseline), CRF 1 µM plus 3 µM CP-154,526 (selective CRF-R1 antagonist, small molecule) [1] [%] | hippocampal CA1 field potentials (% of baseline), CRF 1 µM, 15 mins after CRF onset [1] [%] | NMDAR-mediated EPSCs (% of baseline) in VTA dopamine neurons, CRF 100 nM, 25 mins after CRF onset [2] [%] | NMDAR EPSCs (% of baseline) 15 mins after CRF onset in the presence of 30 nM Antisauvagine-30 [2] [%] |
| --- | --- | --- | --- | --- |
| human/rat corticotrophin-releasing factor (CRF) (from UniProt P06850 154-194) (peptide) | 82.9 | 143 | 128 | – |
| Antisauvagine-30 (peptide) | – | – | – | 114 |
